Test results reported in patent US20240301061A1 (BEIGENE SWITZERLAND, published 2024).

Experiments:
[1] = molecular target: T1, human claudin 6 (CLDN6) (human, UniProt P56747 1-220); assay: flow cytometry, PA-1 cells
T1 construct: also called human CLDN6; hCLDN6
T1 sequence: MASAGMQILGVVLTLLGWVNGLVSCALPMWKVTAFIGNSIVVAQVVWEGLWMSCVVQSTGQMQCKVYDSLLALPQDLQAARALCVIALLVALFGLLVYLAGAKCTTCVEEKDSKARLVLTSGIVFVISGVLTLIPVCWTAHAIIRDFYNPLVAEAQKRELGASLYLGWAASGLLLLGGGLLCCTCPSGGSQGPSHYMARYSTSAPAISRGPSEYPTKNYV
Experimental: (§1) For affinity determination, CLDN6 over-expressing HEK293T cells and cancer cell line PA-1 which express high levels of human CLDN6 were used to evaluate the binding activity of BG87P related engineering variants. Live cells were seeded in 96-well plate, and were incubated with a series of dilutions of chBG87P and engineered variants thereof. Goat anti-human IgG was used as second antibody to detect antibody binding to the cell surface. EC50 values for dose-dependent binding to CLDN6 expressing cell lines were determined by fitting the dose-response data to the four-parameter logistic model with GraphPad Prism. Cell binding activity of 1st round of BG87P humanization variants against HEK293T/human CLDN6 were compared to chBG87P and shown in FIG. 1A.

[2] = molecular target: T1, human claudin 6 (CLDN6); assay: flow cytometry, HEK293-hCLDN6 cells; ratio to chBG87P
[3] = molecular target: T1, human claudin 6 (CLDN6); assay: flow cytometry, PA-1 cells; ratio to chBG87P
Experimental: as §1

[4] = molecular target: T2, cyno CLDN6 (cyno); assay: flow cytometry, HEK293T-cyno-CLDN6 cells; ratio to chBG87P
T2 construct: whole, on cells; also called cynomolgus CLDN6

[5] = molecular target: T1, human claudin 6 (CLDN6); assay: flow cytometry, HEK293T-hCLDN6 cells; ratio to chBG87P
[6] = molecular target: T1, human claudin 6 (CLDN6); assay: flow cytometry, HEK293T-human CLDN6 cells; ratio to chBG87P
Experimental: as §1

B1: BG87P-21 (antibody, V domains shown)
VH: QVQLVQSGAEVKKPGASVKVSCKASGYSFTDYHINWVRQAPGQRLEWMGWIYPGSGYTKYNEKFKGRVTITRDTSASTAYMELSSLRSEDTAVYYCARSGIYHYVSSYYFDHWGKGTTVTVSS
VL: DIQMTQSPSTLSASVGDRVTITCKASQDVGTAVAWYQQKPGKAPKLLIYWASTRHTGVPSRFSGSGSGTEFTLTISSLQPDDFATYYCQQYSSYTFGGGTKVEIK
notes: 2nd round humanized variant
For B1, the “Top MFI Mean” value [1] was 76500 MFI, the “FACS-Ec50 ratio to BG87P” value [2] was 0.91 and the “Emax ratio to BG87P” value [3] was 0.61. The “FACS Emax ratio to BG87P” value [4] was 0.8, the “FACS Emax ratio to BG87P” value [5] was 0.66 and the “Emax ratio to BG87P” value [6] was 0.78.
